B1: TRAF3IP2 (parent)
chain: PGQPLPGASVRGLHPVQKVILNYP

Variants of: B1
Experiment: protein stability index of a GFP-peptide fusion (GPS, HEK-293T) (PSI 1-6); higher = more stable
Settings: c terminus: a fixed tail appended
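Also: lentivirally expressed fusions sorted by FACS into six bins by GFP to DsRed ratio, PSI derived from sequencing read proportions per bin multiplied by bin number.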

Protein stability index, by site and new letter:
L5: D 3.84 | M 3.44 | W 2.94 | G 3.56 | N 3.66 | K 3.25 | S 3.43 | T 3.88 | E 3.15 | P 3.64 | H 3.42 | Y 3.48 | C 2.94 | R 3.19 | F 2.29 | Q 3.95 | A 3.31 | I 3.34
A8: D 3.19 | S 3.27 | N 3.47 | K 2.62 | G 3.24 | H 2.97 | C 2.27 | E 3.36 | T 3.65 | M 2.97 | Y 2.71 | R 2.89 | L 3.21 | P 3.08 | I 2.83 | F 2.51 | Q 2.59 | V 2.39
V19: T 3.59 | I 3.26 | D 3.23 | M 2.74 | A 3 | R 2.82 | H 3.06 | P 3.29 | Y 2.91 | E 4.06 | C 3.16 | N 3.59 | L 3.23 | S 3.09 | F 2.45 | K 3.32 | Q 3.71 | W 3.38
Q17: I 2.24 | H 2.9 | T 2.81 | A 2.62 | C 2.52 | F 1.26 | K 2.97 | N 2.8 | E 2.95 | R 3 | M 2.43 | S 2.77 | V 1.35 | P 3.51 | G 3.1 | W 1.87 | L 1.71 | Y 3.02
I20: N 3.72 | C 3.25 | P 3.36 | S 4.67 | H 2.95 | A 3.89 | R 3.89 | Q 3.87 | T 3.03 | M 3.42 | F 3.38 | V 2.93 | E 3.91 | D 3.84 | L 3.45 | K 4.01
L21: N 3.6 | C 3.23 | Q 3.79 | M 3.45 | Y 3.24 | S 3.55 | T 3.71 | D 4.22 | F 2.79 | H 3.63 | V 2.87 | P 3.66 | E 3.71 | K 3.99 | G 3.64 | W 2.22 | R 2.76 | I 3.5
V16: S 3.46 | T 3.36 | A 3.24 | D 4.08 | H 3.03 | P 2.66 | N 3.61 | I 3.09 | Y 2.04 | W 2.54 | F 2.83 | R 3.49 | L 2.57 | M 2.72 | E 3.44 | C 2.93 | Q 3.63
H14: Y 2.82 | E 3.96 | N 3.24 | V 2.96 | S 3.19 | L 2.83 | F 2.61 | Q 3.67 | R 3.37 | K 3.51 | T 3.29 | G 2.59 | A 3.45 | P 3.67 | M 2.69 | W 2.15 | C 3.3 | I 3.04 | D 3.67
G7: P 3.04 | A 3.02 | Q 3.12 | V 3.26 | L 3.44 | W 2.09 | S 2.76 | I 3.05 | D 3.22 | K 2.76 | H 3.2 | Y 2.26 | E 3.55 | T 3.31 | M 3 | C 2.59 | R 2.69 | N 2.68 | F 3.15
N22: M 2.3 | R 4.18 | G 2.54 | A 2.74 | C 2.51 | D 3.13 | H 2.49 | T 3.05 | S 3.27 | E 3.51 | P 3.44 | L 1.83 | F 1.59 | Q 2.98
P4: S 2.6 | Q 3.29 | V 2.69 | W 2.84 | T 4.15 | N 2.06 | Y 2.77 | I 2.41 | K 2.69 | M 3 | R 3.21 | L 2.66
P6: K 2.54 | A 3.49 | E 3.69 | D 3.37 | L 2.42 | H 3.44 | V 3.46 | C 2.08 | Y 2.72 | S 3.14 | G 2.5 | I 2.79 | R 3.63 | W 2.53 | Q 3.46 | T 3.21 | N 3.21 | F 3.17 | M 3.09
S9: T 3.48 | I 2.16 | Q 2.86 | E 2.92 | G 3.2 | N 3.33 | M 2.68 | V 3.27 | D 3.08 | A 3.99 | W 2.97 | L 3.09 | P 3.58 | H 3.5 | K 3.19 | R 2.22 | Y 2.62 | F 2.21
V10: D 2.96 | Y 3 | F 2.36 | N 3.5 | K 2.89 | E 3.19 | C 3.29 | W 2.62 | S 3 | T 2.87 | L 2.61 | P 3.22 | R 2.57 | I 2.84 | A 3.52 | H 2.79 | Q 3.05 | M 3 | G 3.54
L13: M 3.59 | H 3.75 | W 3.02 | N 3.36 | Y 2.26 | G 3.31 | E 3.9 | I 3.1 | A 3.38 | Q 3.69 | D 3.68 | T 3.56 | V 2.85 | P 3.84 | R 3.68 | K 3.5 | S 3.42 | F 2.91 | C 1.83
P15: M 2.05 | H 3.08 | G 2.76 | L 2.25 | Y 1.91 | V 2.02 | S 2.79 | C 2.13 | T 2.48 | R 3.39 | D 3.53 | E 3.12 | Q 3.85 | I 1.76 | N 2.92 | A 2.29 | K 2.75
G12: V 2.43 | P 3.14 | A 3.69 | N 2.94 | D 3.64 | L 2.12 | W 1.96 | Y 2.74 | I 2.63 | M 2.85 | R 2.76 | H 2.7 | F 2.3 | E 3.87 | K 3.2 | S 3.39 | Q 3.42 | C 2.72
R11: M 2.75 | H 3.51 | W 2.08 | E 3.19 | L 2.25 | N 2.96 | Q 3.79 | T 3.2 | V 2.84 | Y 3.4 | A 2.6 | F 2.06 | C 3.3 | P 3.79 | G 2.73 | D 3.71 | S 3.12 | I 2.96 | K 2.88
K18: P 2.99 | Q 3.78 | Y 2.52 | H 2.85 | M 2.72 | W 2.76 | R 2.64 | I 2.08 | G 3.57 | F 2.3 | N 2.65 | D 3.6 | C 2.09 | L 2.31 | S 3.27 | T 3.38 | A 2.64 | V 2.02

Source: the supplement of paper PMC10567573
